# B1: His-HypR (His-tagged HypR, wild type), oxidized by diamide or NaOCl (natural protein, B. subtilis, UniProt P37486 1-125, looked up)
# chain: MSEKKNIYPNKEGCPVEFTLDVIGGKWKGILFYHMIDGKKRFNEFRRICPSITQRMLTLQLRELEADGIVHREVYHQVPPKVEYSLTEFGRTLEPIVLQMKEWGESNRDVLESYRSNGLVKDQQK
# modifications: Cys14-Cys49' intersubunit disulphide after oxidation with diamide or NaOCl
# Molecular target: the molecule itself
# Experiment: crystal structure
protein,measurement,value
B1,stoichiometry N,2
